The target of this test is human inducible heat shock protein 70 (hHsp70), full-length, non-tagged (human). The experiment in a line: BLI; biotinylated hHsp70 or DnaK immobilised on streptavidin biosensor tips, analyte in PBS (hHsp70 200-500 nM; hHsp40 20-50 nM; DnaK 200-500 nM), association 600 s, dissociation 600 s, 1:1 model.
human inducible heat shock protein 70 (hHsp70), full-length, non-tagged (human), sequence (P0DMV8 whole entry E110D): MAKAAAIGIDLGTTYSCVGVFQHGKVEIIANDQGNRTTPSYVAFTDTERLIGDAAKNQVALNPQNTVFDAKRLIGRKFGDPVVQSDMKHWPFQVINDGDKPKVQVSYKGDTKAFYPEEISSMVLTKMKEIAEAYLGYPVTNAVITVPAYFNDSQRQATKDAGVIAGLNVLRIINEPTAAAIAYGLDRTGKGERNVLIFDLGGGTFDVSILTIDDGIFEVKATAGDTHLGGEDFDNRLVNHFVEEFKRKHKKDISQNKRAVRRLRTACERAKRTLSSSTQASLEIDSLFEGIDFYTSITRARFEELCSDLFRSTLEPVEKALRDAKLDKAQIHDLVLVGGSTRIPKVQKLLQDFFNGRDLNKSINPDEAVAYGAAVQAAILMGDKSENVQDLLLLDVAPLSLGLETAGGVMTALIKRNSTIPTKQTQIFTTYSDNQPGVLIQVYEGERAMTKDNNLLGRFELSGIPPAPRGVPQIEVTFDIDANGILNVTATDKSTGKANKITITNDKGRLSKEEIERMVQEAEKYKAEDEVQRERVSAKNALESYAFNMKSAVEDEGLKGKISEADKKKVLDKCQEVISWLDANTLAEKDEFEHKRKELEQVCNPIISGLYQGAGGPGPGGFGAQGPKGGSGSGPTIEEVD

Take “human heat shock protein 40 (hHsp40) (from UniProt P25685 1-340) (natural protein)”: the Kd (as a rule, a measure of binding affinity in units of concentration) was determined as 0.52 nM. In other words, the sub-nanomolar range.

For the origin of these results see PMC4255253.
